These results are taken from patent US20230265169A1 (US Dept. of Health and Human Services, published 2023).

Numbering of substitutions follows the chain as printed.

T1: MERS-CoV spike protein on live MERS-CoV (EMC, KNIH-002, KNIH-016 and KNIH-042 strains) (MERS-CoV)
T1 chain: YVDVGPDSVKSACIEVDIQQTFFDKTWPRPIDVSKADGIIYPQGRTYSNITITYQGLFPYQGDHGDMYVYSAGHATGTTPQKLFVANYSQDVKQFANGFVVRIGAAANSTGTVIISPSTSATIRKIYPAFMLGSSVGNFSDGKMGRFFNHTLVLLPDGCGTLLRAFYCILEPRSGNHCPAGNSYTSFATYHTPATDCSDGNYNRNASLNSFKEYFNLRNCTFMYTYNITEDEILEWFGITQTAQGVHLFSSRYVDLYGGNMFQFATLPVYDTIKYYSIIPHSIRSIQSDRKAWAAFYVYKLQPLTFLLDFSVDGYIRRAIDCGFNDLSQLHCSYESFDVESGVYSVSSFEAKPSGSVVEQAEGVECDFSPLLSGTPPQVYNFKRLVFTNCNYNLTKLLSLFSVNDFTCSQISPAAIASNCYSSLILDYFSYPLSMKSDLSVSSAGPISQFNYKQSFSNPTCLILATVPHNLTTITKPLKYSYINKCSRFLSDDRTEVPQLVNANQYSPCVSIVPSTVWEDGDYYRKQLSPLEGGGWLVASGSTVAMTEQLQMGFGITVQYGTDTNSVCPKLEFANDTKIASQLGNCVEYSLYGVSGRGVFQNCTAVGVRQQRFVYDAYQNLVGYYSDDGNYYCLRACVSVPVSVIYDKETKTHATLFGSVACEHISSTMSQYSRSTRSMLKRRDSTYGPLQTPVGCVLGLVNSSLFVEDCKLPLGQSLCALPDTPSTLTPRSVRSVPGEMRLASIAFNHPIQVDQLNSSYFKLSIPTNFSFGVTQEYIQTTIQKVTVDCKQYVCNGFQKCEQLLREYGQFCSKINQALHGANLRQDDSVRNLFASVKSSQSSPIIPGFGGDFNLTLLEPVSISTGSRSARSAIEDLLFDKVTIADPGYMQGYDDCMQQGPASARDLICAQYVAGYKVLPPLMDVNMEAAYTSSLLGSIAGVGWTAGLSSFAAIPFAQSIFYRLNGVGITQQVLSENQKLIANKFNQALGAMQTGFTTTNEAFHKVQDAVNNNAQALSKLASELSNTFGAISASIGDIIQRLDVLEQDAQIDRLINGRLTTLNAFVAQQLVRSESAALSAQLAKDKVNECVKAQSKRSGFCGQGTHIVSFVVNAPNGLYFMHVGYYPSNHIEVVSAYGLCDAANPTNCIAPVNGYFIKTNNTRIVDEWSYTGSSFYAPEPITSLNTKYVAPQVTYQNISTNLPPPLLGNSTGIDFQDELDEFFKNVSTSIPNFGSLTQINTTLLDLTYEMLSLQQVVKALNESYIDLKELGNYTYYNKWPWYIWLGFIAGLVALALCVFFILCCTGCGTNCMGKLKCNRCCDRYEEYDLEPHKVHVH

B1: 90-C4 antibody (antibody, V domains shown)
VH: QVQLQESGPGLVKPSGTLSLTCAVSGGSINSSNWWSWVRQPPGKGLEWIGEIYYSGSTNYNPSLKSRVTTSVDNSKNQFSLKLSSVTAADTAVYYCATFDSGGYNPNWFDPWGQGTLVTVSS
VL: QSALTQPPSVSGAPGQRVTISCTGSSSSIGAGYDVHWYQQLPGTAPKLLIYGNSNRPSGVPDRFSGSKSGTSASLAITGLQAEDEADYYCQSYDSSLSGYVFGTGTKVTVLG
B2: 77-A5 antibody (antibody, V domains shown)
VH: QVQLVQSGAEVKKPGSSVKVSCKASGGTFRSHAISWVRQAPGQGLEWMGGIIPIFASANYAQKFQGRVTITADESTSTAYMDLSSLRSDDTAVYYCAKNVSPKSYSGRYSISYFYGVDVWGQGTTVTVSS
VL: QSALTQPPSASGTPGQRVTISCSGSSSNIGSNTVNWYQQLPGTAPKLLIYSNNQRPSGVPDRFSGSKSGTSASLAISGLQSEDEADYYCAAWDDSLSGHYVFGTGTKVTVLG
B3: 90-E6 antibody (antibody, V domains shown)
VH: EVQLVESGGGLVQPGRSLRLSCAASGFTFDDHAMHWVRQAPGKGLEWVSGFSWNSGSIGYADSVKGRFTISRDNAKNSLYLQMNSLRAEDTALYYCAKDRRSDYYFYGMDVWGQGTTVTVSS
VL: QSVLTQPPSVSAAPGQKVTISCSGSRSNIGNNYVSWYQQLPGTAPKLLIYDNNKRPSGIPDRFSGSKSGTSATLGITGLQTGDEADYYCGTWDSSLNAGVFGGGTKLTVLG
B4: 77-A6 antibody (antibody, V domains shown)
VH: EVQLLESGGGLVQPGGSLRLSCADSGLTFSSYAMSWVRQAPGKGLEWVSAISVSGGSTYYSDSVKGRFTISRDNSKNTLSLQMNSLRAEDTAVYYCVKARSIVGPFDYWGQGTLVTVSS
VL: B3 VL with V3A, R26S, Q39H, N53I, K54M, S94T, N97S, G99V
B5: 90-F2 antibody (antibody, V domains shown)
VH: QVQLVQSGAEVKKPGASVKVSCKASGYTFTTYYMHWVRQAPGQGLEWMGIINPSGGSTSYAQKFQGRVTMTRDTSTSTVYMELSSLRSEDTAVYYCARGAVVVILDYWGQGTLVTVSS
VL: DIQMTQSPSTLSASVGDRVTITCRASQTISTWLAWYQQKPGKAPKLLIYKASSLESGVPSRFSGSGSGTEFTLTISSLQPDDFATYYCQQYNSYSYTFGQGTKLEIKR
B6: 90-F1 antibody (antibody, V domains shown)
VH: QVQLVQSGAEVKRPGSSVKVSCKTSGGTFNNNAINWVRQAPGQGLEWMGGIIPFFGIAKYAQKFQGRVTITADESTSTAYMELSSLRSEDTAVYYCARDLPRESSYGSGSYYTHYYAMDVWGQGTTVTVSS
VL: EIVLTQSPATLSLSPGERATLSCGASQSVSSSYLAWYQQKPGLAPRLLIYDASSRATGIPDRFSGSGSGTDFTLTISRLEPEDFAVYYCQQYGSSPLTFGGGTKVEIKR
B7: 90-A9 antibody (antibody, V domains shown)
VH: QVQLVQSGAEVKKPGSSVKVSCKASGGTFSSFPISWVRQAPGQGLEWMGGIIPIFGAANYAQKFQGRVTITADESTSTAYMELSSLRSEDTAVYYCARNYEEIVVIPAIMNFGYWGQGTLVTVSS
VL: EIVLTQSPGTLSLSPGERATLSCRASQSVASSYLAWYQQKPGQAPRLLIYGTSSRATGIPDRFSGSGSGADFTLTISRLEPEDFAVYYCQQYGTSPLTFGGGTKVEIK
B8: 90-A3 antibody (antibody, V domains shown)
VH: QVQLVQSGAEVKKPGASVKVSCMTSGYTFTSYGISWVRQAPGQGLEWMGWISAYNGNTNYAQKLQGRVTMTTDTSTSTAYMELRSLRSDDTAVYYCARDRGAYWDCGGDCYLSAFDYWGQGTLVTVSS
VL: B3 VL with S2A, L4V, R26S, N97S, G99V
B9: 90-B7 antibody (antibody, V domains shown)
VH: EVQLLESGGGLVKPGGSLRLSCAASGFTFGSYSMTWVRQAPGKGLEWVSSISSSSSYIYYADSVKGRFTISRDNAKNSLFLQMNSLRAEDTAVYYCARGNGYCSHNSCYKIGVWFDPWGQGTLVTVSS
VL: B3 VL with S2A, L4V, R26S, N97S, G99F, G103T, L107V
B10: 90-B2 antibody (antibody, V domains shown)
VH: QVQLQESGPGLVKPSETLSLTCTVSGGSISSSSYYWGWIRQPPGKGLEWIGSIYYSGNTYYNPSLKSRVTISVDTSKNHFSLRLSSVTAADTAVYFCARSLPHYDSTGYLLYWGQGTLVTVSS
VL: EIVLTQSPATLSLSPGGRATLSCRASQSVSRYLAWYQQKPGRAPRLLIYDASNRAPGIPARFSGSGSGTDFTLTISSLEPEDFAVYYCQQRSNWPQTTFGPGTKVDIKR

In the first assay the target is MERS-CoV full-length spike trimer antigen (amino acids 1 to 1275 of the spike protein, lacking the … (MERS-CoV, UniProt K9N5Q8 18-1275)).
Test: not given
The EC50 (read off the curve) is the concentration that produces a half-maximal response. Take B1: the “EC50 (read off the curve)” value was around 0.08 µg/mL.

In another assay the target is T2, MERS-CoV RBD antigen (receptor binding domain, amino acids 377 to 588 of the spike protein) (MERS-CoV, UniProt K9N5Q8 377-588).
Test: not given
As to B2, the “EC50 (read off the curve)” value is around 0.008 µg/mL.
Turning to B3, the “EC50 (read off the curve)” value was around 0.09 µg/mL.
The same measure, in the same setting: the figure for B4 is around 0.06 µg/mL; for B5 it is around 0.07 µg/mL.

The next assay concerns the target T2, MERS-CoV RBD antigen (receptor binding …). The assay can be described thus: SPR, RBD antigen on CM5 chip, antibody as analyte (called avidity).
As usually defined, the koff is the rate constant with which the complex falls apart. A word on the kon: it is a measure of how fast the partners come together. Consider B2, for which the Kd is 0.161 nM, the koff came out at 2.08e-05 s⁻¹ and the kon turned out to be 130000 M⁻¹ s⁻¹.
For B6 the same measures were 0.072 nM, 2.71e-05 s⁻¹ and 376000 M⁻¹ s⁻¹.
Take B4: the Kd worked out at 0.673 nM, the koff was 3.15e-05 s⁻¹ and the kon stood at 46700 M⁻¹ s⁻¹.
Taken in the same sequence, the figures for B5 were 5.86 nM, 0.0014 s⁻¹ and 238000 M⁻¹ s⁻¹.

A further assay concerns the target T1, MERS-CoV spike protein on live MERS-CoV …. The assay can be described thus: cell-based or functional assay. Also on record: ND50 (PRNT with MERS-CoV): unit not given beside the values.
In the case of B2, the “ND50 (PRNT with MERS-CoV)” value turned out to be 35.6 and the “ND50 antibody conc. (PRNT with MERS-CoV)” value was 0.28 µg/mL.
Turning to B7, the “ND50 (PRNT with MERS-CoV)” value amounted to 0.58 and the “ND50 antibody conc. (PRNT with MERS-CoV)” value is 17.3 µg/mL.
In the case of B6, the “ND50 (PRNT with MERS-CoV)” value turned out to be 956 and the “ND50 antibody conc. (PRNT with MERS-CoV)” value is 0.01 µg/mL.
Consider B1, for which the “ND50 (PRNT with MERS-CoV)” value amounted to 0.78 and the “ND50 antibody conc. (PRNT with MERS-CoV)” value was found to be 12.8 µg/mL.
For B3 the same measures were 0.68 and 14.8 µg/mL.
Taken in the same sequence, the figures for B4 were 95.7 and 0.1 µg/mL.
For B8, the “ND50 (PRNT with MERS-CoV)” value stood at 0.63 and the “ND50 antibody conc. (PRNT with MERS-CoV)” value is 15.8 µg/mL.
For the molecule B9, the “ND50 (PRNT with MERS-CoV)” value is 14.9 and the “ND50 antibody conc. (PRNT with MERS-CoV)” value turned out to be 0.67 µg/mL.
With B5, the “ND50 (PRNT with MERS-CoV)” value stood at 54 and the “ND50 antibody conc. (PRNT with MERS-CoV)” value was determined as 0.19 µg/mL.
For B10 the same measures were 39.5 and 0.25 µg/mL.

A further assay has as its target T3, MERS-CoV S1 antigen (S1 domain, amino acids 1 to 757 of the spike protein) (MERS-CoV, UniProt K9N5Q8 18-757).
T3 construct: also called MERS-CoV S1 domain
The assay can be described thus: SPR, S1 antigen on CM5 chip, antibody as analyte (called avidity). (Surface plasmon resonance follows binding to a sensor surface in real time, without labels.)
Turning to B2, the Kd is at most 0.0751 nM, the koff is at most 1e-05 s⁻¹ and the kon stood at 133000 M⁻¹ s⁻¹.
Take B6: the Kd is 0.153 nM, the koff came to 9.88e-05 s⁻¹ and the kon came to 648000 M⁻¹ s⁻¹.
On to B4, for which the Kd worked out at 0.695 nM, the koff was found to be 4.43e-05 s⁻¹ and the kon was 63800 M⁻¹ s⁻¹.
For B9 the same measures were 0.153 nM, 0.000104 s⁻¹ and 681000 M⁻¹ s⁻¹.
Taken in the same sequence, the figures for B5 were 6.6 nM, 0.000882 s⁻¹ and 134000 M⁻¹ s⁻¹.
The molecule B10 gave a Kd of at most 0.0751 nM, a koff of at most 1e-05 s⁻¹ and a kon of 131000 M⁻¹ s⁻¹.

Another assay addresses T2, MERS-CoV RBD antigen (receptor binding …). The assay can be described thus: ELISA, RBD antigen coated. A general note: ELISA stands for enzyme-linked immunosorbent assay.
Take B7: the binding result is given as “no binding (tested: up to 10 µg/ml)”.
On to B1, for which the binding result was “no binding (tested: up to 10 µg/ml)”.
As for B8, the binding result was “no binding (tested: up to 10 µg/ml)”.

The next assay shares this target. The assay can be described thus: SPR, RBD antigen attached on a CM5 chip, antibody loaded, HBS-EP.
In the case of B9, the binding result was “no binding (tested: 500 nM)”.
Take B10: the binding result is “no binding (tested: 500 nM)”.
